Measured values taken from IntAct's records for PubMed 15143163.

B1: Low-density lipoprotein receptor-related protein 5 (Homo sapiens), O75197 (parent)
chain: MEAAPPGPPWPLLLLLLLLLALCGCPAPAAASPLLLFANRRDVRLVDAGGVKLESTIVVSGLEDAAAVDFQFSKGAVYWTDVSEEAIKQTYLNQTGAAVQNVVISGLVSPDGLACDWVGKKLYWTDSETNRIEVANLNGTSRKVLFWQDLDQPRAIALDPAHGYMYWTDWGETPRIERAGMDGSTRKIIVDSDIYWPNGLTIDLEEQKLYWADAKLSFIHRANLDGSFRQKVVEGSLTHPFALTLSGDTLYWTDWQTRSIHACNKRTGGKRKEILSALYSPMDIQVLSQERQPFFHTRCEEDNGGCSHLCLLSPSEPFYTCACPTGVQLQDNGRTCKAGAEEVLLLARRTDLRRISLDTPDFTDIVLQVDDIRHAIAIDYDPLEGYVYWTDDEVRAIRRAYLDGSGAQTLVNTEINDPDGIAVDWVARNLYWTDTGTDRIEVTRLNGTSRKILVSEDLDEPRAIALHPVMGLMYWTDWGENPKIECANLDGQERRVLVNASLGWPNGLALDLQEGKLYWGDAKTDKIEVINVDGTKRRTLLEDKLPHIFGFTLLGDFIYWTDWQRRSIERVHKVKASRDVIIDQLPDLMGLKAVNVAKVVGTNPCADRNGGCSHLCFFTPHATRCGCPIGLELLSDMKTCIVPEAFLVFTSRAAIHRISLETNNNDVAIPLTGVKEASALDFDVSNNHIYWTDVSLKTISRAFMNGSSVEHVVEFGLDYPEGMAVDWMGKNLYWADTGTNRIEVARLDGQFRQVLVWRDLDNPRSLALDPTKGYIYWTEWGGKPRIVRAFMDGTNCMTLVDKVGRANDLTIDYADQRLYWTDLDTNMIESSNMLGQERVVIADDLPHPFGLTQYSDYIYWTDWNLHSIERADKTSGRNRTLIQGHLDFVMDILVFHSSRQDGLNDCMHNNGQCGQLCLAIPGGHRCGCASHYTLDPSSRNCSPPTTFLLFSQKSAISRMIPDDQHSPDLILPLHGLRNVKAIDYDPLDKFIYWVDGRQNIKRAKDDGTQPFVLTSLSQGQNPDRQPHDLSIDIYSRTLFWTCEATNTINVHRLSGEAMGVVLRGDRDKPRAIVVNAERGYLYFTNMQDRAAKIERAALDGTEREVLFTTGLIRPVALVVDNTLGKLFWVDADLKRIESCDLSGANRLTLEDANIVQPLGLTILGKHLYWIDRQQQMIERVEKTTGDKRTRIQGRVAHLTGIHAVEEVSLEEFSAHPCARDNGGCSHICIAKGDGTPRCSCPVHLVLLQNLLTCGEPPTCSPDQFACATGEIDCIPGAWRCDGFPECDDQSDEEGCPVCSAAQFPCARGQCVDLRLRCDGEADCQDRSDEADCDAICLPNQFRCASGQCVLIKQQCDSFPDCIDGSDELMCEITKPPSDDSPAHSSAIGPVIGIILSLFVMGGVYFVCQRVVCQRYAGANGPFPHEYVSGTPHVPLNFIAPGGSQHGPFTGIACGKSMMSSVSLMGGRGGVPLYDRNHVTGASSSSSSSTKATLYPPILNPPPSPATDPSLYNMDMFYSSNIPATARPYRPYIIRGMAPPTTPCSTDVCDSDYSASRWKASKYYLDLNSDSDPYPPPPTPHSQYLSAEDSCPPSPATERSYFHLFPPPPSPCTDSS
partner: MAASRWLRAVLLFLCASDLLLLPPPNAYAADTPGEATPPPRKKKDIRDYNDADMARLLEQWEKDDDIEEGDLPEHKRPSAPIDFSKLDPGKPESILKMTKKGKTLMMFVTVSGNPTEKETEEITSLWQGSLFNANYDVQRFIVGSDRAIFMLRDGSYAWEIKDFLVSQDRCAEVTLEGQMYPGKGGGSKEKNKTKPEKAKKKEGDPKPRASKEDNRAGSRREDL

Variants of: B1
Settings: with mesd_mouse Mesd

effect of a mutation on the interaction | Variant
disrupting interaction | G171V
